B1: Dreieckhorn (antibody, V domains shown)
VH: QVQLVQSGAEVKKPGASVKVSCKASGYTFTSYNMHWVRQAPGQGLEWMGVIYSGQGDTSYNQKFKGRVTMTTDTSTSTAYMELRSLTSDDTAVYYCARERDTRFGNWGQGTLVTVSA
VL: EIVLTQSPSSLSASVGDRVTITCRASESVDIYGESFMHWYQQKPGKAPKLLIYSASNLESGVPSRFSGSGSGTDFTLTISSLQPEDFATYYCQQNREEPYTFGQGTKLEIK
notes: IgG; also called VH1.4/VL1.32
B2: Balmhorn (antibody, V domains shown)
VH: B1 VH
VL: EIVLTQSPSSLSASVGDRVTITCRASESVDIYGESFMHWYQQKPGKAPKLLIYLASNLESGVPSRFSGSGSGTDFTLTISSLQPEDFATYYCQQNKEEPYTFGQGTKLEIKR
notes: IgG; also called VH1.4/VL1.19
B3: Piz Palü (antibody, V domains shown)
VH: B1 VH
VL: B1 VL with S54H
notes: IgG; also called VH1.4/VL1.30
B4: Piz Morteratsch (antibody, V domains shown)
VH: B1 VH
VL: B1 VL with S54Q
notes: IgG; also called VH1.4/VL1.33
B5: Nesthorn (antibody, V domains shown)
VH: B1 VH
VL: B1 VL with S54E
notes: IgG; also called VH1.4/VL1.31
B6: Dufour (antibody, V domains shown)
VH: B1 VH with Q55N
VL: B1 VL with E34N, S54L, R96N, E98D
notes: IgG; also called VH1/VL1; HC1 LC1
B7: Allalinhorn (antibody, V domains shown)
VH: B1 VH with Q55N
VL: B2 VL
notes: IgG; also called VH1/VL1.19; Allaninhorn
B8: Piz Bernina (antibody, V domains shown)
VH: B1 VH with Q55N
VL: B2 VL with K96N
notes: IgG; also called VH1/VL1.17
B9: Eiger (antibody, V domains shown)
VH: B1 VH with Q55N
VL: B2 VL with E34S
notes: IgG; also called VH1/VL1.26
B10: Piz Roseg (antibody, V domains shown)
VH: B1 VH with Q55N
VL: B2 VL with E34S, L54K
notes: IgG; also called VH1/VL1.28
B11: Piz Argient (antibody, V domains shown)
VH: B1 VH with Q55N
VL: B2 VL with E34H
notes: IgG; also called VH1/VL1.27
B12: Bietschhorn (antibody, V domains shown)
VH: B1 VH with Q55N
VL: B2 VL with K96R
notes: IgG; also called VH1/VL1.29
B13: NegCtrl (antibody, V domains shown)
VH: QVQLQQSGPGLVKPSQTLSLTCAISGDSVSSNSAAWSWIRQSPGRGLEWLGRIYYRSKWYNDYAVSVKSRITINPDTSKNQFSLQLNSVTPEDTAVYYCARLDHRYHEDTVYPGMDVWGQGTLVTVSS
VL: DIELTQPPSVSVAPGQTARISCSGDNLPAYTVTWYQQKPGQAPVLVIYDDSDRPSGIPERFSGSNSGNTATLTISGTQAEDEADYYCASWDPSSGVVFGGGTKLTVL
notes: also called NegCtrl antibody (anti-chicken lysozyme); NegCtrt

Numbering of substitutions follows the chain as printed.

T1 sequence (P10721 26-524 limits assumed): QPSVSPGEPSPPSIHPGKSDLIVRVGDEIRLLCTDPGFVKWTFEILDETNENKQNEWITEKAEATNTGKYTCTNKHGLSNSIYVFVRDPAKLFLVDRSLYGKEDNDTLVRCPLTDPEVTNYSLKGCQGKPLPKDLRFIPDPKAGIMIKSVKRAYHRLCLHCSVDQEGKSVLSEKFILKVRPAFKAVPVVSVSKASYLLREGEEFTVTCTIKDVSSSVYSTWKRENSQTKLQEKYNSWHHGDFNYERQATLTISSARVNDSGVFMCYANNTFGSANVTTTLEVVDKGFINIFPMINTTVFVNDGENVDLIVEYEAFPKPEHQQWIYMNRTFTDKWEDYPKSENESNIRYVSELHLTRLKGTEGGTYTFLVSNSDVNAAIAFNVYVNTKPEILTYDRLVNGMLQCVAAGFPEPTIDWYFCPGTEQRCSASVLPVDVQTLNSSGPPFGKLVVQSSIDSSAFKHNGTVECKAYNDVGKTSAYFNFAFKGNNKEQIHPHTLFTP

One assay concerns the target T1, human recombinant CD117 (c-Kit) from Sino Biological (Catalog No. 11996-H08H) (human, UniProt P10721 26-524).
T1 construct: also called soluble antigen
As to the kind of experiment: BLI Octet, set-up as in Example 2. As for the experimental part:
(§1) IgG antibodies were immobilized on biosensors using suitable capture surfaces and binding of soluble antigen to immobilized antibodies was monitored by BLI (Octet). The resulting sensorgrams were analyzed using the supplied software (Fortebio). As antigen human recombinant CD117 (c-Kit) from Sino Biological was used (Catalog No. 11996-H08H, Lot #LC14SE0812). As a pre-experiment a series of experiments was performed to optimize assay parameters. The following parameters were selected:
(§2) In the main experiment kinetic assays were performed by first capturing IgG using anti-human Fc biosensors. The mAb capture biosensors were then submerged in wells containing different concentrations of antigen (association stage) followed by a dissociation step in running buffer. To allow for double reference correction, IgG-captured sensors were dipped into wells containing only buffer and blank sensors were also dipped into wells containing the antigen. This referencing provided a means of compensating for both the natural dissociation of the capture IgG and non-specific binding of the antigen to the sensor surface. Steps were performed at 25° C. at a constant shaking of 1000 rpm. New sensors were used for each sample. Dissociation rate constants (Kd) were calculated using the ForteBio Data Analysis software. All consumables used were those recommended by ForteBio.
A general note: BLI is a label-free optical method that tracks binding on a fibre tip over time.
As to B1, the binding result was “binds”.
The same measure, in the same setting: the result for B2 reads “binds”; that for B3, “binds”; that for B4, “binds”.
As for B5, the binding result is “binds”.

For another assay, the target named is T2, CD117 on wild-type cells (TF-1 cells, HSPCs, HSCs) (human, UniProt P10721 26-976). The assay can be described thus: cell-based or functional assay.
T2 sequence (P10721 26-976 limits assumed): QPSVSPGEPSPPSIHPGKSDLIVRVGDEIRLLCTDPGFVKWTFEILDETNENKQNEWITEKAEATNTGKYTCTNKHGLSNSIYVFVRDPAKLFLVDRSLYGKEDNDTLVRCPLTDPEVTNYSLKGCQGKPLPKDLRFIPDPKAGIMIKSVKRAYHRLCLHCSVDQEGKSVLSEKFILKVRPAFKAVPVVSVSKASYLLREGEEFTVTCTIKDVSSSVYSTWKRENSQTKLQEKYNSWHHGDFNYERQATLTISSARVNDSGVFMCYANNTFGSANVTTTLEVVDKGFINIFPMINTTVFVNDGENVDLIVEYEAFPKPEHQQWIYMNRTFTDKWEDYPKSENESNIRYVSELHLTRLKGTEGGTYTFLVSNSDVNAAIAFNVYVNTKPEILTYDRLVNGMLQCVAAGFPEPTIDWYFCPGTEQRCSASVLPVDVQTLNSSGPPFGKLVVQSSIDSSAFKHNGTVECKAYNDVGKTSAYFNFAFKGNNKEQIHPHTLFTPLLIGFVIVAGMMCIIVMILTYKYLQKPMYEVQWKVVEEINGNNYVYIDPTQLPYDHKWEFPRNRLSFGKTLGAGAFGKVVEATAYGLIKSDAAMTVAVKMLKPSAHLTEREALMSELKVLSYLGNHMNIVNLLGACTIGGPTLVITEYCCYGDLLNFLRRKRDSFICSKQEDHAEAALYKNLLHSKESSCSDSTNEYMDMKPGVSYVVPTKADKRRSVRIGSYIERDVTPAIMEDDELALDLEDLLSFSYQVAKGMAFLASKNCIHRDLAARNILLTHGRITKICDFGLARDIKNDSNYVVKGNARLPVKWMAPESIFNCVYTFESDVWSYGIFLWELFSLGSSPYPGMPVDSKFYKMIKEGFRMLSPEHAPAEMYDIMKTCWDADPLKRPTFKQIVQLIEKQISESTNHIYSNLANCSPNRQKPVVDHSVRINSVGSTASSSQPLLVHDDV
Turning to B6, the “IC50, inhibition of SCF-dependent proliferation of CD34-positive HSPCs (CellTiter-Glo)” value was 0.0949 µg/mL.
The same measure, in the same setting: the same measure for B7: 0.0313 µg/mL.
Turning to B8, the “IC50, inhibition of SCF-dependent proliferation of CD34-positive HSPCs (CellTiter-Glo)” value amounted to 0.00521 µg/mL.
On to B9, for which the “IC50, inhibition of SCF-dependent proliferation of CD34-positive HSPCs (CellTiter-Glo)” value came out at 0.594 µg/mL.
As to B10, the “IC50, inhibition of SCF-dependent proliferation of CD34-positive HSPCs (CellTiter-Glo)” value is > 10 µg/mL.
Turning to B11, the “IC50, inhibition of SCF-dependent proliferation of CD34-positive HSPCs (CellTiter-Glo)” value was > 10 µg/mL.
With B12, the “IC50, inhibition of SCF-dependent proliferation of CD34-positive HSPCs (CellTiter-Glo)” value turned out to be 0.0842 µg/mL.
Still for that read-out and setting: the result for B13 reads > 10 µg/mL.

In a further assay the target is T1, human recombinant CD117 (c-Kit) from …. The assay can be described thus: BLI Octet, set-up as in Example 2. The source holds these as a separate data set. The method, then: as §2
(§3) All samples were diluted in freshly prepared running buffer. Antibody variants were immobilized onto the surface of a series of biosensors using the capture methods described. Antigen was passed over the surface to generate a binding response. Binding data for the IgG:antigen interactions were collected at 25° C. on the biosensors. A dilution series of the antigen was used in the association step, in order to fit results globally and get the best values for ka, kd, and KD. The response data for the binding of antigen to the surface immobilized IgG were fitted to a 1:1 binding model. HC0 LC0 refers to murine SR-1.
By Kd is commonly meant the equilibrium constant for the complex coming apart. Consider B6, for which the Kd came out at 0.4 nM.
Take B7: the Kd was determined as 0.45 nM.
On the same count and under the same terms, the same measure for B8: 0.19 nM; for B9: 1.6 nM.
For B10, the Kd was 8.3 nM.
Still for that read-out and setting: the result for B11 reads 3.3 nM.
The same measure, in the same setting: the result for B12 reads 1.1 nM.

The target of another assay is T2, CD117 on wild-type cells (TF-1 cells, …). The assay can be described thus: cell-based or functional assay. The source holds these as a separate data set.
In the case of B6, the “IC50, inhibition of SCF-dependent proliferation of TF-1 cells (CellTiter-Glo), Average” value (shortened to “IC50, inhibition … Average”) was 0.22 µg/mL; the “IC50, inhibition of SCF-dependent proliferation of TF-1 cells (CellTiter-Glo), Experiment #1” value (“IC50, inhibition … Experiment #1” below) is 0.12 µg/mL; the “IC50, inhibition of SCF-dependent proliferation of TF-1 cells (CellTiter-Glo), Experiment #2” value (“IC50, inhibition … Experiment #2” below) was determined as 0.321 µg/mL.
Regarding B7, the “IC50, inhibition … Average” value was 0.0441 µg/mL; the “IC50, inhibition … Experiment #1” value turned out to be 0.0415 µg/mL; the “IC50, inhibition … Experiment #2” value was 0.0467 µg/mL.
On to B8, for which the “IC50, inhibition … Average” value worked out at 0.0176 µg/mL; the “IC50, inhibition … Experiment #1” value was 0.0122 µg/mL; the “IC50, inhibition … Experiment #2” value came to 0.0231 µg/mL.
In the case of B9, the “IC50, inhibition … Average” value is > 0.5 µg/mL; the “IC50, inhibition … Experiment #1” value was > 0.5 µg/mL; the “IC50, inhibition … Experiment #2” value was > 0.5 µg/mL.
Turning to B10, the “IC50, inhibition … Average” value is > 0.5 µg/mL; the “IC50, inhibition … Experiment #1” value was > 0.5 µg/mL; the “IC50, inhibition … Experiment #2” value was > 0.5 µg/mL.
Turning to B11, the “IC50, inhibition … Average” value is > 0.5 µg/mL; the “IC50, inhibition … Experiment #1” value was > 0.5 µg/mL; the “IC50, inhibition … Experiment #2” value is > 0.5 µg/mL.
Turning to B12, the “IC50, inhibition … Average” value turned out to be 0.151 µg/mL; the “IC50, inhibition … Experiment #1” value was found to be 0.0455 µg/mL; the “IC50, inhibition … Experiment #2” value was found to be 0.256 µg/mL.
Taken in the same sequence, the figures for B13 were > 0.5 µg/mL, > 0.5 µg/mL and > 0.5 µg/mL.

Another assay shares this target. As to the kind of experiment: flow cytometry on TF-1 wild-type cells, Fc receptors blocked, goat anti-human IgG Alexa Fluor 488 as secondary antibody. The method, then: Binding of the antibodies of the present disclosure to CD117 on TF-1 cells was measured. TF-1 wild-type cells were seeded at a concentration of 100,000 cells/well. A Fc receptor blocking was performed using 25 μL TruStain FcX (BioLegend) for 15 min. Next cells are treated with various concentrations of the antibodies to be tested (0.0001-5 μg/ml). After additional 30 min cells were washed, then a secondary antibody was added to the cells (IgG (H+L) Cross-Adsorbed Goat anti-Human, Alexa Fluor® 488). After 30 min and two additional wash steps a live dead staining via 7AAD (7-aminoactinomycin D) was performed using 0.5 μg/mL 7AAD for 10 min before analyzing cells in a flow cytometer.
On the technique in general: A flow cytometer gives signals particle by particle.
Usually EC50 (read off the curve) stands for the midpoint of the concentration-response curve. A low value points to higher potency in that assay. For the molecule B7, the concentration for a half-maximal effect (EC50 (read off the curve)) was ~0.02 µg/mL.
In the case of B8, the “EC50 (read off the curve)” value was ~0.02 µg/mL.
As for B10, the “EC50 (read off the curve)” value was ~0.2 µg/mL.
B11: the “EC50 (read off the curve)” value was ~0.1 µg/mL.
For B12, the “EC50 (read off the curve)” value is ~0.04 µg/mL.
On to B13, for which the binding result is recorded as “no binding (tested: 5 ug/ml)”.

A further assay addresses T1, human recombinant CD117 (c-Kit) from …. The assay can be described thus: BLI Octet, IgG on anti-human Fc sensor, soluble CD117, 1:1 fit. The method, then:
as §1, §2, §3
Usually koff stands for a measure of how fast the partners let go of each other. In general, kon refers to the rate constant with which the complex forms. As to B6, the Kd was determined as 0.79 nM, the koff is 0.000397 s⁻¹ and the association rate constant (kon) was 503000 M⁻¹ s⁻¹.

Values taken from patent US20260258124A1 (CIMEIO THERAPEUTICS, published 2026).
